According to publication PMC5817926:
pKd: −log10 of the molar value.

Legend:
[1] = molecular target: ubiquitin polyprotein composed of nine identical repeats (Ubi)9; test: single-molecule force-clamp spectroscopy (AFM) with a kinetic model fit; (Ubi)9 tethered between gold and cantilever, 5 uM DnaJ in solution; PBS + 5 mM MgCl2 pH 7.4, 22 C; binding to ubiquitin held extended at 170 pN for text 0-30 s, quench 5 s; kon and koff of the extended state as free parameters of the kinetic model
[2] = molecular target: ubiquitin polyprotein composed of nine identical repeats (Ubi)9 (UniProt P0CG48); test: single-molecule force-clamp spectroscopy (AFM); extended state: polyprotein tethered between a gold surface and the cantilever tip, unfolded and held extended at high force (120 pN; 170 pN for the constants of the extended conformation) for text 1 to 30 s with 5 uM chaperone (DnaK with ADP); refolding yield read in a test pulse after tq = 5 s; constants from a multiparametric fit of a kinetic model; PBS + 5 mM MgCl2, pH 7.4, 22 C
[3] = molecular target: ubiquitin polyprotein composed of nine identical repeats (Ubi)9 (UniProt P0CG48)
[4] = molecular target: ubiquitin polyprotein composed of nine identical repeats (Ubi)9; test: single-molecule force-clamp spectroscopy (AFM) with a kinetic model fit; (Ubi)9 tethered between gold and cantilever, 5 uM chaperone in solution (DnaK with ADP); PBS + 5 mM MgCl2 pH 7.4, 22 C; binding to ubiquitin mechanically unfolded and held extended at 120 pN; constants from a multiparametric fit of ordinary differential equations to the refolding yields
[5] = molecular target: ubiquitin polyprotein composed of nine identical repeats (Ubi)9 (UniProt P0CG48); remark: listed apart in the source
[6] = molecular target: (I27)8 polyprotein of the I27th Ig domain of titin; test: single-molecule force-clamp spectroscopy (AFM) with a kinetic model fit; polyprotein tethered between gold and cantilever, 5 uM chaperone in solution (DnaK with ADP); PBS + 5 mM MgCl2 pH 7.4, 22 C; binding to the collapsed state during the quench at 0 pN (tq 0.5-15 s); constants from a multiparametric fit of the kinetic model to the refolding kinetics
[7] = molecular target: (I27)8 polyprotein of the I27th Ig domain of titin; test: single-molecule force-clamp spectroscopy (AFM); collapsed (molten globule-like) states: polyprotein tethered between a gold surface and the cantilever tip, unfolded, force quenched for tq 0.5 to 15 s with 5 uM chaperone (DnaK with ADP); refolding yield read in a test pulse; constants from a multiparametric fit of a kinetic model; PBS + 5 mM MgCl2, pH 7.4, 22 C
[8] = molecular target: ubiquitin polyprotein composed of nine identical repeats (Ubi)9 (UniProt P0CG48); remark: listed apart in the source
[9] = molecular target: (I27)8 polyprotein of the I27th Ig domain of titin
[10] = molecular target: ubiquitin polyprotein composed of nine identical repeats (Ubi)9 (UniProt P0CG48); remark: listed apart in the source
[11] = molecular target: ubiquitin polyprotein composed of nine identical repeats (Ubi)9 (UniProt P0CG48); test: single-molecule force-clamp spectroscopy (AFM); collapsed (molten globule-like) states: polyprotein tethered between a gold surface and the cantilever tip, unfolded, force quenched for tq 0.5 to 15 s with 5 uM chaperone (DnaK with ADP); refolding yield read in a test pulse; constants from a multiparametric fit of a kinetic model; PBS + 5 mM MgCl2, pH 7.4, 22 C

Chain of DnaK (Hsp70) (P0A6Y8 whole entry): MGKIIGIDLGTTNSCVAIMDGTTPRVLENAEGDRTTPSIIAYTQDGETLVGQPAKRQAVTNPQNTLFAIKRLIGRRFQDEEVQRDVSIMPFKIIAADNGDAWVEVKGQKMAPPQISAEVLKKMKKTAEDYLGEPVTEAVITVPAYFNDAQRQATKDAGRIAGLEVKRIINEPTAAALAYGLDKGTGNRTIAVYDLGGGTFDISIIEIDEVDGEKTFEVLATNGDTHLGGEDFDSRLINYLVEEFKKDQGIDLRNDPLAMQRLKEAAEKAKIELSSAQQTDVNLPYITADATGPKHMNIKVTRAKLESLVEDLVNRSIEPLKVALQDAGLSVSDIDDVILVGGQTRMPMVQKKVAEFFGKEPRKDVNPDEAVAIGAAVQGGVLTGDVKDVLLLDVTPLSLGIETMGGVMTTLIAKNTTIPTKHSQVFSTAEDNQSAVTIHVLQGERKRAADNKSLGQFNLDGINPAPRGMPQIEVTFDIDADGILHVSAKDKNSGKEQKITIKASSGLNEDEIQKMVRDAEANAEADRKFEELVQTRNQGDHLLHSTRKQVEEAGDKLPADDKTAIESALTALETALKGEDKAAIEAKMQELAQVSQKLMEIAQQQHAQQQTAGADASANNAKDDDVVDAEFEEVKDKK
Chain of DnaJ (Hsp40) (P08622 whole entry): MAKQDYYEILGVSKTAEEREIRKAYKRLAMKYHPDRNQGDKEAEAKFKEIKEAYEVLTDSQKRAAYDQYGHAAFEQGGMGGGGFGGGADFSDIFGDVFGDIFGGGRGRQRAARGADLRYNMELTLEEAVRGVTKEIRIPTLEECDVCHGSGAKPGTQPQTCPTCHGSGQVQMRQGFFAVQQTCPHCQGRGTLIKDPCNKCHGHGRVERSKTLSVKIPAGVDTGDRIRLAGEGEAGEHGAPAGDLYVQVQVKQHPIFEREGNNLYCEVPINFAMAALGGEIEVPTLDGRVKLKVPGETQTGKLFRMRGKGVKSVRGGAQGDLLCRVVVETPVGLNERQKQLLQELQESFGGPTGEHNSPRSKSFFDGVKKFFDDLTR

Substance | kon [1] | pKd [2] | rate of the exponential decrease of the refolding efficiency of ubiquitin with the time held extended (text 1 to 30 s, tq = 5 s) with 5 μM DnaJ [3] | koff [4] | kon [4] | refolding percentage of ubiquitin after 15 s stretched at 50 to 300 pN with DnaJ, tq = 5 s (10% at 150 to 170 pN, ~30% at 300 pN, ~50% at 50 pN) [5] | koff [6] | pKd [7] | kon [7] | plateau of the refolding yield of ubiquitin in force-quench trajectories (tq 0.5 to 15 s) with 5 μM DnaJ (~75% without DnaJ) [8] | refolding yield of I27 with DnaK(ADP) [9] | plateau of the refolding yield of ubiquitin in force-quench trajectories (tq 0.5 to 15 s) with 5 μM DnaK(ADP) [10] | pKd [11]
DnaJ (Hsp40) (from UniProt P08622 1-376) (natural protein) | 48700 M⁻¹ s⁻¹ | 6.03 | 0.27 s⁻¹ | 0.0492 s⁻¹ | 29900 M⁻¹ s⁻¹ | 50% | 0.0472 s⁻¹ | 6.48 | 250000 M⁻¹ s⁻¹ | 30% | – | – | –
DnaK (Hsp70) (from UniProt P0A6Y8 1-638) (natural protein) | – | – | – | – | – | – | 0.029 s⁻¹ | 6.57 | – | – | 50% | 30% | 6.85
